In patent EP4628104A1 (Shanghai Chia Tai Tianqing Pharmaceutical Technology …, dated 2024):
Changes are numbered by the printed parent chain.

B1: hz28G3-1.1-DDDXd (with DAR of 7.4) (antibody, human IgG1, kappa, DAR 7.4, V domains shown)
VH: QVQLVQSGAEVKKPGASVKVSCKTSGYSFTDYLMLWVRQAPGQGLEWMGNINPYYGRTTYALKFKGRVTMTVDRSTSTVYMELSSLRSEDTAVYYCARDGYSLRNAMDYWGQGTLVTVSS
VL: DIVMTQSPDSLAVSLGERATINCKSSQSLFNSGNQKNYLAWYQQKPGQPPKLLIYGASTRESGVPDRFSGSGSGTDFTLTISSLQAEDVAVYYCQNAHSYPYTFGQGTKVEIKR
modifications: linker-payload MC-GGFG-DDDXd (compound H) conjugated to cysteines of the reduced inter-chain disulfide bonds; positions not given; linker-payload MC-GGFG-DDDXd (compound H) conjugated to cysteines of the reduced inter-chain disulfide bonds; positions not given; DAR 7.4 for the whole molecule
notes: also called anti-CLDN18.2 antibody-drug conjugate
B2: humanized antibody hz28G3-1.1 (antibody, human IgG1, kappa, V domains shown)
VH: B1 VH
VL: B1 VL
notes: Naked humanized anti-CLDN18.2 antibody, human IgG1 / kappa, expressed in CHO cells
B3: humanized antibody hz28G3-1.3 (antibody, human IgG1, kappa, V domains shown)
VH: B1 VH with P41H, G44S
VL: B1 VL
notes: as for B2
B4: hz28G3-1.3-DDDXd (with DAR of 7.6) (antibody, human IgG1, kappa, DAR 7.6, V domains shown)
VH: B1 VH with P41H, G44S
VL: B1 VL
modifications: linker-payload MC-GGFG-DDDXd (compound H) conjugated to cysteines of the reduced inter-chain disulfide bonds; positions not given; linker-payload MC-GGFG-DDDXd (compound H) conjugated to cysteines of the reduced inter-chain disulfide bonds; positions not given; DAR 7.6 for the whole molecule
notes: as for B1

target: T1, human CLDN18.2 (human); test: flow cytometry, CLDN18.2-overexpressing NCI-N87 cells
T1 construct: The construct in the CLDN18.2-overexpressing BxPC-3 and NCI-N87 lines is not described; KATOIII and NUGC-4 express CLDN18.2 naturally; All are written here as this one molecule; also called Claudin 18.2; tight junction protein 18.2
T1 sequence (chain, as listed by the source limits assumed): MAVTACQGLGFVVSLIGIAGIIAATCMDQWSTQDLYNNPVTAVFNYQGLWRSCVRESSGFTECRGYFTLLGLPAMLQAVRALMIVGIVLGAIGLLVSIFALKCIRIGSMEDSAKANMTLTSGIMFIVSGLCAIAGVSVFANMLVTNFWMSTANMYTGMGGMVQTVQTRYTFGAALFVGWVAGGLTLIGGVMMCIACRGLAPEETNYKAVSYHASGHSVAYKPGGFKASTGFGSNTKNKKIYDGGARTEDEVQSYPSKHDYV

First: B1
Second: B2
The EC50 of the first is 2.2-fold lower: 1.17 nM for the first, 2.61 nM for the second. The first is the more potent here.

Going from B3 to B4, the EC50 falls from 2.73 nM to 1.02 nM (2.7-fold).

target: T1, human CLDN18.2; test: cell-based or functional assay

B1 and B4 are the same in “CDC activity IC50, CLDN18.2-overexpressing NIH-3T3 cells with human complement” value: roughly 0.352 nM for the first, roughly 0.352 nM for the second.

target: T1, human CLDN18.2; test: cell-based or functional assay; remark: another data set of the same source

B1 and B4 are within 1.5-fold of each other in “Killing activity IC50 (CellTiter-Glo), CLDN18.2-overexpressing BxPC-3 cells” value: 0.125 nM for the first, 0.0886 nM for the second.

B1 and B4 are within 1.5-fold of each other in “Killing activity IC50 (CellTiter-Glo), CLDN18.2-overexpressing NCI-N87 cells” value: 0.0381 nM for the first, 0.0337 nM for the second.

Compared with B1, B4 is 1.6-fold lower in “Killing activity IC50 (CellTiter-Glo), CLDN18.2-overexpressing NIH-3T3 cells” value: 0.44 nM for the first, 0.281 nM for the second.

target: T1, human CLDN18.2; test: flow cytometry, CLDN18.2-overexpressing NIH-3T3 cells

First: B1
Second: B2
The EC50 of the first is 2.5-fold lower: 0.896 nM for the first, 2.27 nM for the second.

Compared with B3, B4 is 3-fold lower in EC50: 1.76 nM for the first, 0.593 nM for the second.

target: T1, human CLDN18.2; test: flow cytometry, CLDN18.2-overexpressing BxPC-3 cells

Compared with B1, B2 is 2.3-fold higher in EC50: 1.13 nM for the first, 2.63 nM for the second. The first is the more potent here.

Going from B3 to B4, the EC50 falls from 3.42 nM to 0.946 nM (3.6-fold). The second is the more potent here.

target: T1, human CLDN18.2; test: cell-based or functional assay; remark: another data set of the same source

First: B1
Second: B2
The “Endocytosis EC50, CLDN18.2-overexpressing NCI-N87 cells” value of the first is 1.8-fold lower: 4.41 nM for the first, 7.84 nM for the second.

First: B3
Second: B4
The “Endocytosis EC50, CLDN18.2-overexpressing NCI-N87 cells” value of the first is 2.1-fold higher: 6.68 nM for the first, 3.24 nM for the second.

B1 and B2 are within 1.5-fold of each other in “Endocytosis EC50, CLDN18.2-overexpressing NIH-3T3 cells” value: 3.69 nM for the first, 2.57 nM for the second.

Going from B3 to B4, the “Endocytosis EC50, CLDN18.2-overexpressing NIH-3T3 cells” value falls from 4.26 nM to 1.85 nM (2.3-fold).
